Test results taken from patent US20240116985A1, “STAPLED PEPTIDES AND METHODS THEREOF” (priority 2020, published 2024).
Starred links: 1 amine or outer side, 2 acyl side, 3 side chain; linkers in the order of their positions; H or OH if unused. Positions of bridges follow the written chain, without caps; N, C: chain ends. Non-standard residues stand in square brackets, D forms with d. Primed or numbered codes have the meaning given here. *: point of attachment. PyrS2″ = (S)-3-amino-1-((pent-4-en-1-yloxy)carbonyl)pyrrolidine-3-carboxylic acid (stapling residue), C=CCCCOC(=O)N1CC[C@@](N[*:1])(C(=O)[*:2])C1; B5(4) = 2,2-bis(4-pentenyl)glycine = 2-amino-2-(pent-4-en-1-yl)hept-6-enoic acid (stitching residue), C=CCCCC(CCCC=C)(N[*:1])C(=O)[*:2]; B5(5) = 2,2-bis(4-pentenyl)glycine, 2-amino-2-(pent-4-en-1-yl)hept-6-enoic acid (stitching residue), C=CCCCC(CCCC=C)(N[*:1])C(=O)[*:2]; PyrS2 = (S)-3-amino-1-((pent-4-en-1-yloxy)carbonyl)pyrrolidine-3-carboxylic acid, C=CCCCOC(=O)N1CC[C@@](N[*:1])(C(=O)[*:2])C1; (Me2diaminobutane)GlnR = N5-methyl-N5-(4-(methylamino)butyl)-L-glutamine, CN(CCCCN(C)[*:3])C(=O)CC[C@H](N[*:1])C(=O)[*:2]; SPip1 = 4-amino-1-((but-3-en-1-yloxy)carbonyl)piperidine-4-carboxylic acid, C=CCCOC(=O)N1CCC(N[*:1])(C(=O)[*:2])CC1; B5(25) = 2-amino-2-(pent-4-en-1-yl)hept-6-enoic acid (stitching residue), C=CCCCC(CCCC=C)(N[*:1])C(=O)[*:2]; 5IndA = (S)-2-amino-3-(2,3-dihydro-1H-inden-5-yl)propanoic acid, O=C([C@H](Cc1ccc2c(c1)CCC2)N[*:1])[*:2]; (NMe2)GlnR″ = [NMe2]GlnR: N5,N5-dimethyl-L-glutamine, CN(C)C(=O)CC[C@H](N[*:1])C(=O)[*:2]; B5(3) = 2,2-bis(4-pentenyl)glycine (stitching residue), C=CCCCC(CCCC=C)(N[*:1])C(=O)[*:2]; B5 = 2-amino-2-(pent-4-en-1-yl)hept-6-enoic acid, C=CCCCC(CCCC=C)(N[*:1])C(=O)[*:2]; (NMe2)GlnR = N5,N5-dimethyl-L-glutamine, CN(C)C(=O)CC[C@H](N[*:1])C(=O)[*:2]; Phe(3-COOH) = N[C@@H](Cc1cccc(C(=O)O)c1)C(=O)O; Phe(2-CF3) = N[C@@H](Cc1ccccc1C(F)(F)F)C(=O)O; Phe(3,4-Me2) = Cc1ccc(C[C@H](N)C(=O)O)cc1C; Phe(3-Br) = N[C@@H](Cc1cccc(Br)c1)C(=O)O; Phe(2-Cl) = N[C@@H](Cc1ccccc1Cl)C(=O)O; 1Nal = N[C@@H](Cc1cccc2ccccc12)C(=O)O; 2Nal = N[C@@H](Cc1ccc2ccccc2c1)C(=O)O; Bta = N[C@@H](Cc1csc2ccccc12)C(=O)O; Isobutyloxycarbonyl = CC(C)COC(=O)*; αAllylPro = C=CC[C@@]1(C(=O)O)CCCN1; tBuAla = CC(C)(C)C[C@H](N)C(=O)O; 3Thi = N[C@@H](Cc1ccsc1)C(=O)O; R5 = C=CCCC[C@@](C)(N)C(=O)O; 2F3MeF″ = Phe derivative; Propioloyl = C#CC(=O)*; Aib = CC(C)(N)C(=O)O

What was measured:
[1] = biological target: B-cat-Halo (beta-catenin HaloTag NanoBRET construct expressed in HEK293 cells) (UniProt P35222); test: NanoBRET in HEK293 cells, Bcat-Halo / TCF4-Luc (competitor TCF4-Luc); absolute IC50
[2] = biological target: full-length beta-Catenin (Uniprot ID P35222) (Homo sapiens (Human)) (UniProt P35222); test: fluorescence polarization competition; full-length beta-catenin, competitor 5FAM-TCF4(10-53) probe
Target sequence in this assay (P35222 2-781 limits assumed): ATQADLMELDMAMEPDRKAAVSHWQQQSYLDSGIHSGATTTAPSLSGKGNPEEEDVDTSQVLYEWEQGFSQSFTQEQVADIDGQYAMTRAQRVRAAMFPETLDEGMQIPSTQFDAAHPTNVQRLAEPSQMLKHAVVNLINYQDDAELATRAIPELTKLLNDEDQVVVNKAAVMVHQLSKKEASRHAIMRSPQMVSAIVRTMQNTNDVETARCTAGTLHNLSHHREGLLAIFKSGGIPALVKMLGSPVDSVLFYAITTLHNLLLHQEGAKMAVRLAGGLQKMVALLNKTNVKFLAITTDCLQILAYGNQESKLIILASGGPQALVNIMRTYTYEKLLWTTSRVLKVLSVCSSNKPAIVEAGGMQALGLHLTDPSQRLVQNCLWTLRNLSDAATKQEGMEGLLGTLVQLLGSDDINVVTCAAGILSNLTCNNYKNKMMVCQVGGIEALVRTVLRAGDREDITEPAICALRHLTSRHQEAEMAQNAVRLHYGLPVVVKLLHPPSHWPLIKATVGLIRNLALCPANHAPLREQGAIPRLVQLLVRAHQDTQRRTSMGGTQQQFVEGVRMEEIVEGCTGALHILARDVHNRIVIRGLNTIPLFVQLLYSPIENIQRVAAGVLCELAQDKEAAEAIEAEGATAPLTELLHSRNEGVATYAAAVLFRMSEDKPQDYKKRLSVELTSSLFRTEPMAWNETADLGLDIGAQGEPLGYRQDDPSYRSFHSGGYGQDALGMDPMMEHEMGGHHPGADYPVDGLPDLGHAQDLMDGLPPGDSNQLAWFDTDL

[3] = biological target: full-length beta-Catenin (Uniprot ID P35222) (Homo sapiens (Human)) (UniProt P35222); test: fluorescence polarization competition against 5FAM-TCF4(10-53), full-length beta-catenin
Target sequence in this assay (P35222 whole entry, one chain of several): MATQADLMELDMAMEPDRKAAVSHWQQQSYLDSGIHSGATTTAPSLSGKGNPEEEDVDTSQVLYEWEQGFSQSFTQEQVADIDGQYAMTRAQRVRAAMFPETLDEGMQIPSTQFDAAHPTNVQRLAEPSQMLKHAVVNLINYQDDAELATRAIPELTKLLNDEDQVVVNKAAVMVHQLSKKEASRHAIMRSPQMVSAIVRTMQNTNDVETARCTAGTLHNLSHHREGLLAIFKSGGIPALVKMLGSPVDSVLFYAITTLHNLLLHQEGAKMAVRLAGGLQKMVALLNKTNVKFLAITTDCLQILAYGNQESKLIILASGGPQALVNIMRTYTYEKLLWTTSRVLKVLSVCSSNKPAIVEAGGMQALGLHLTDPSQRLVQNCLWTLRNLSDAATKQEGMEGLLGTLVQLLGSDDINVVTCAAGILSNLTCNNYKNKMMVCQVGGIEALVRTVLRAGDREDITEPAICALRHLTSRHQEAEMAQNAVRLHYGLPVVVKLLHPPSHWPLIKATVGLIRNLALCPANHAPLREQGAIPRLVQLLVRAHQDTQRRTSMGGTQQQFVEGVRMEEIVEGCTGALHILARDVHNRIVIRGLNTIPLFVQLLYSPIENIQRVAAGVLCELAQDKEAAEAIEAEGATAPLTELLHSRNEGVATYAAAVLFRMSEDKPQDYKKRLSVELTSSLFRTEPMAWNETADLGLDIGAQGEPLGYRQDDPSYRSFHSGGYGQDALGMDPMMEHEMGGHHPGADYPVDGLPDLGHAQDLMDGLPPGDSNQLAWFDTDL

Bcat-Halo = Bcat-Halo (UniProt P35222); test: NanoBRET Abs IC50, HEK293 cells, Bcat-Halo / TCF4-Luc
[4] = biological target: full-length beta-Catenin (Uniprot ID P35222) (Homo sapiens (Human)) (UniProt P35222); test: fluorescence polarization competition, competitor 5FAM-TCF4 10-53
Target sequence in this assay (P35222 2-781 limits assumed): as the sequence (P35222 2-781 limits assumed) above

[5] = biological target: full-length beta-Catenin (Uniprot ID P35222) (Homo sapiens (Human)) (UniProt P35222); test: fluorescence polarization competition; full-length beta-catenin + 5FAM-TCF4(10-53) probe
Target sequence in this assay (P35222 whole entry, one chain of several): as the sequence (P35222 whole entry, one chain of several) above

[6] = biological target: full-length beta-Catenin (Uniprot ID P35222) (Homo sapiens (Human)) (UniProt P35222); test: fluorescence polarization competition; full-length beta-catenin, 5FAM-TCF4 10-53 probe as competitor
Target sequence in this assay (P35222 whole entry, one chain of several): as above

Chain of B-cat-Halo (beta-catenin HaloTag NanoBRET construct expressed in HEK293 cells) (P35222 whole entry): as the sequence (P35222 whole entry, one chain of several) above
Chain of Bcat-Halo (P35222 whole entry): as the sequence (P35222 whole entry, one chain of several) above

IC50 [1] [nM] | IC50 [2] [nM] | IC50 [3] [nM] | IC50 (Bcat-Halo) [nM] | Binder | further results
> 20000 | 138 | – | – | Ac-[αAllylPro]D[tBuAla][B5(5)]NT[Aib]AFR[PyrS2][3Thi][Bta]Q-NH2 (staple 1-4, 4-11) [I-2407] | –
> 20000 | 133 | – | – | Ac-[αAllylPro]D[tBuAla][B5(5)]NT[Aib]AFN[PyrS2″][3Thi][Bta]T-NH2 (staple 1-4, 4-11) [I-2416] | –
50000 | 397 | – | – | Ac-[αAllylPro]D[tBuAla][B5(5)]NT[Aib]AFT[PyrS2][3Thi][Bta]Q-NH2 (staple 1-4, 4-11) [I-2409] | –
> 20000 | 304 | – | – | Ac-[αAllylPro]D[tBuAla][B5(5)]NT[Aib]AFH[PyrS2″][3Thi][Bta]Q-NH2 (staple 1-4, 4-11) [I-2410] | –
– | – | 5 | 5200 | Ac-[αAllylPro]D[tBuAla][B5(4)]D[Phe(3-COOH)]QAFV[PyrS2″][3Thi][RbMe2NapA]A-NH2 (staple 1-4, 4-11) [I-2312] | –
– | – | 7 | 5200 | Ac-[αAllylPro]D[tBuAla][B5(4)]D[Phe(3-COOH)][(NHEt)GlnR]AFL[PyrS2″][2F3MeF″][Bta][(NHEt)GlnR]-NH2 (staple 1-4, 4-11) [I-2299] | –
> 20000 | 12 | – | – | Propioloyl-[αAllylPro]D[tBuAla][B5(5)]D[Phe(3-COOH)]AAFL[PyrS2″][Phe(2-Cl)][Bta]A-NH2 (staple 1-4, 4-11) [I-2403] | –
– | – | 48 | > 20000 | Ac-[αAllylPro]D[tBuAla][B5(4)]D[Phe(3-COOH)]QAFV[PyrS2″][3Thi][SbMe2NapA]A-NH2 (staple 1-4, 4-11) [I-2314] | –
– | – | – | – | Ac-[αAllylPro]D[tBuAla][B5(3)]DTAA[1Nal]T[PyrS2″]F[Bta]S-NH2 (staple 1-4; staple 4-11 (inferred); not fully specified; printed as Ac-PL3-Asp-Npg-B5-Asp-Thr-Ala-Ala-1NapA-Thr-PyrS2-Phe-BztA-Ser-NH2) [I-1266] | IC50 [4]: 755 nM; EC50 [5]: 755 nM
– | – | 6 | 5100 | Ac-[αAllylPro]D[tBuAla][B5(4)]D[Phe(3-COOH)]QAFV[PyrS2][3Thi][5IndA]A-NH2 (staple 1-4, 4-11) [I-2296] | –
– | – | – | – | Ac-[αAllylPro]D[tBuAla][B5]D[Phe(3-COOH)]QAFL[SPip1][Phe(2-CF3)][Bta]A-NH2 (staple 1-4, 4-11; not fully specified; printed as Ac-PL3-Asp-Npg-B5-Asp-3COOHF-Gln-Ala-Phe-Leu-SPip1-2F3MeF-BztA-Ala-NH2) [I-2584] | IC50 [6]: 1840 nM
7800 | 53 | – | – | Ac-[αAllylPro]D[tBuAla][B5(5)]D[Phe(3-COOH)]AAFL[PyrS2][Phe(2-CF3)][Bta]QL[dT]-NH2 (staple 1-4, 4-11) [I-2397] | –
2800 | 17 | – | – | Ac-[αAllylPro]D[tBuAla][B5(5)]D[Phe(3-COOH)]AAFL[PyrS2][Phe(2-CF3)][Bta]QAA-NH2 (staple 1-4, 4-11) [I-2399] | –
– | – | 16 | 8900 | Ac-[αAllylPro]D[tBuAla][B5(4)]D[Phe(3-COOH)]AAFL[PyrS2″][3Thi][Phe(3-Br)]Q-NH2 (staple 1-4, 4-11) [I-2307] | –
> 20000 | 16 | – | – | propiolyl-[αAllylPro]D[tBuAla][B5(5)]DDAAFQ[PyrS2][3Thi][Bta]H-NH2 (staple 1-4, 4-11) [I-2402] | –
4400 | 37 | – | – | Ac-[αAllylPro]D[tBuAla][B5(5)]D[Phe(3-COOH)]AAFL[PyrS2][Phe(2-CF3)][Bta]QVA-NH2 (staple 1-4, 4-11) [I-2401] | –

IC50 [1] [nM] | IC50 [2] [nM] | IC50 [3] [nM] | IC50 (Bcat-Halo) [nM] | Binder | further results
– | – | 16 | 4600 | Ac-[αAllylPro]D[tBuAla][B5(4)]D[Phe(3-COOH)]QAFL[PyrS2][Phe(2-CF3)][Phe(3,4-Me2)]A-NH2 (staple 1-4, 4-11) [I-2294] | –
– | – | 6 | 1200 | Ac-[αAllylPro]D[tBuAla][B5(4)]D[Phe(3-COOH)][(NMe2)GlnR″]AFL[PyrS2″][2F3MeF″][Bta][(NMe2)GlnR″]-NH2 (staple 1-4, 4-11) [I-2300] | –
– | – | 18 | 8900 | Ac-[αAllylPro]D[tBuAla][B5(4)]D[Phe(3-COOH)]QAFV[PyrS2″][3Thi][2Nal]A-NH2 (staple 1-4, 4-11) [I-2310] | –
> 20000 | 7 | – | – | Ac-[αAllylPro]D[tBuAla][B5(5)]NT[Aib]AFN[PyrS2″][3Thi][Bta]H-NH2 (staple 1-4, 4-11) [I-2414] | –
– | – | 65 | > 20000 | Isobutyloxycarbonyl-[αAllylPro]D[tBuAla][B5(4)]D[Phe(3-COOH)]AAFL[PyrS2″][Phe(2-Cl)][Bta]A-NH2 (staple 1-4, 4-11) [I-2305] | –
– | – | 5 | 2500 | Ac-[αAllylPro]D[tBuAla][B5(4)]D[Phe(3-COOH)][(NHEt)GlnR]AFV[PyrS2″][3Thi][Bta]A-NH2 (staple 1-4, 4-11) [I-2302] | –
8300 | 187 | – | – | Ac-[αAllylPro]D[tBuAla][B5(5)]D[Phe(3-COOH)]AAFL[PyrS2][Phe(2-CF3)][Bta]QL[dL]-NH2 (staple 1-4, 4-11) [I-2396] | –
> 20000 | 147 | – | – | Ac-[αAllylPro]D[tBuAla][B5(5)]NT[Aib]AFN[PyrS2″][3Thi][Bta]N-NH2 (staple 1-4, 4-11) [I-2415] | –
– | – | 5 | > 20000 | Ac-[αAllylPro]D[tBuAla][B5(4)]D[Phe(3-COOH)][(Me2diaminobutane)GlnR]AFV[PyrS2″][3Thi][Bta]A-NH2 (staple 1-4, 4-11) [I-2301] | –
– | – | – | – | Ac-[αAllylPro]D[tBuAla][B5(3)]DTAA[2Nal]T[PyrS2″]F[Bta]S-NH2 (staple 1-4; staple 4-11 (inferred); not fully specified; printed as Ac-PL3-Asp-Npg-B5-Asp-Thr-Ala-Ala-2NapA-Thr-PyrS2-Phe-BztA-Ser-NH2) [I-1267] | IC50 [4]: 181 nM; EC50 [5]: 181 nM
– | – | – | – | Ac-P[R5]ED[tBuAla][B5(25)]D[Phe(3-COOH)]AAFL[PyrS2″][Phe(2-CF3)][Bta]Q-NH2 (staple 6-13, 2-6 (inferred); not fully specified; printed as Ac-Pro-R5-Glu-Asp-Npg-B5-Asp-3COOHF-Ala-Ala-Phe-Leu-PyrS2-2F3MeF-BztA-Gln-NH2) [I-2575] | IC50 [6]: 8160 nM
– | – | 5 | 1200 | Ac-[αAllylPro]D[tBuAla][B5(4)]D[Phe(3-COOH)][(NMe2)GlnR]AFV[PyrS2″][3Thi][Bta]A-NH2 (staple 1-4, 4-11) [I-2303] | –
– | – | 8 | 4600 | Ac-[αAllylPro]D[tBuAla][B5(4)]D[Phe(3-COOH)]QAFL[PyrS2″][Phe(2-CF3)][5IndA]A-NH2 (staple 1-4, 4-11) [I-2298] | –
2500 | 142 | – | – | Ac-[αAllylPro]D[tBuAla][B5(5)]D[Phe(3-COOH)]AAFL[PyrS2][Phe(2-CF3)][Bta]QFA-NH2 (staple 1-4, 4-11) [I-2400] | –
– | – | – | – | Ac-[R5]AD[tBuAla][B5(25)]D[Phe(3-COOH)]AAFL[PyrS2″][Phe(2-CF3)][Bta]Q-NH2 (staple 1-5, 5-12 (inferred); also: staple -CH=CH- reduced to -CH2-CH2-) [I-2574] | IC50 [6]: 2960 nM
